Columns and labels:
[1] = target: T1, polymorphic epithelial mucin (PEM) (human, UniProt P15941); assay: direct binding ELISA, PEM-coated microwell plates, culture supernatant
[2] = target: T1, polymorphic epithelial mucin (PEM); assay: order of binding activity from all the direct binding ELISA assays on PEM

B1: cLgH2 (chimeric light chain with CDR-grafted heavy chain gH2; plasmids pAL52 and pAL41) (antibody, V domains shown)
VH: QIQLVQSGAEVKKPGSSVKVSCKASGYTFTDYYINWMRQAPGQGLEWIGWIDPGSGNTKYNEKFKGRATLTVDTSTNTAYMELSSLRSEDTAFYFCAREKTTYYYAMDYWGQGTLVTVSS
VL: DIVMTQAAPSVPVTPGESLSISCRSSKSLLHSNGDTFLYWFLQRPGQSPQLLIYRMSNLASGVPDRFSGSGSGTAFTLRVSRVEAEDVGVYYCMQHLEYPFTFGAGTKLELKR
B1: binds [1].

B2: gL1cH (CDR-grafted light chain gL1 with chimeric heavy chain; plasmids pAL47 and pHMC33) (antibody, V domains shown)
VH: QIQLQQSGPELVKPGASVKISCKASGYTFTDYYINWMKQKPGQGLEWIGWIDPGSGNTKYNEKFKGKATLTVDTSSSTAYMQLSSLTSEDTAVYFCAREKTTYYYAMDYWGQGTSVTVS
VL: DIQMTQSPSTLSASVGDRVTITCRSSKSLLHSNGDTFLYWFQQKPGKAPKLLMYRMSNLASGVPSRFSGSGSGTEFTLTISSLQPDDFATYYCMQHLEYPFTFGQGTKVEVKR
B2: binds [2].

From patent publication US6015562, “Targeted forms of methyltrithio antitumor agents” (American Cyanamid Company, dated 2000)
